This data set relates to immobilized soluble extracellular domain of eck. The data set can be described thus: Stability of eck binding activity of formulated EBP (BIAcore). It is filed as physicochemical, human. Particulars: diluted into PBS to 100 μg/ml, 2 hours at 3° C., no detergent. How it is done: FIG. 7. Binding of CHO-derived EBP in various detergent formulations to immobilized eck receptor as measured by BIAcore. Purified EBP was diluted to 100 μg/ml in PBS in the presence or absence of detergent and incubated for 2 hrs. at 3° C. Protein samples were diluted to the concentrations indicated in the figure and tested for eck receptor binding.
Measuring the ability of EBP to bind to the immobilized soluble extracellular domain of eck using BIAcore, it was determined that dilute solutions of purified EBP rapidly lost the ability to bind to the eck receptor unless formulated with a protective agent such as a detergent. Recombinant CHO EBP diluted into PBS to 100 μg/ml and incubated for 2 hours at […] lost approximately 50% of its eck binding activity. […] (see FIG. 7).
For orientation: SPR reads the build-up and loss of mass on a sensor chip optically.

As to “CHO-EBP: recombinant EBP purified from supernatants of CHO cells transfected with the EBP gene; mainly EBP^1-150 and EBP^1-159”, the “loss of eck binding activity” value is recorded as “approximately 50%”.

Values taken from US5716934A, “Eck receptor ligands” (Amgen Inc., priority 1995, dated 1998).
